Data on 3 substances can be found in paper PMC12071944, “Interaction Between Glucagon-like Peptide 1 and Its Analogs with Amyloid-β Peptide Affects Its Fibrillation and Cytotoxicity” (International Journal of Molecular Sciences, 2025).

Where “and” joins values, the source holds several entries; their conditions need not be identical. Identical values can stand only once. Like-named read-outs stand apart in the source and are kept apart here.

Assay [1] has as its target exenatide (UniProt P26349). The assay can be described thus: dynamic light scattering; 29 µM Exen; 25 °C; 25 mM Tris-HCl, 140 mM NaCl, 4.9 mM KCl, […] CaCl2, 1 mM MgCl2, pH 7.4; degree of multimerization MWRh/MWm.
Assay [2] has as its target amyloid-β peptide, residues 1-42 (human) (UniProt P05067). The assay can be described thus: BLI; Aβ40/Aβ42 immobilised on amine-reactive sensors (EDAC/sulfo-NHS), washed with 0.5% SDS; analyte 4–15 µM Exen; 25 °C; 20 mM Tris-HCl, 140 mM NaCl, 4.9 mM KCl, […] CaCl2, 1 mM MgCl2, pH 7.4; curves not fitted, KD estimated as the level of the analyte concentrations; apparent.
Assay [3] has as its target amyloid-β peptide, residues 1-40 (human) (UniProt P05067). The assay is described as above.
The target of assay [4] is exenatide (UniProt P26349). The assay can be described thus: dynamic light scattering; 115 µM Exen; 25 °C; 25 mM Tris-HCl, 140 mM NaCl, 4.9 mM KCl, […] CaCl2, 1 mM MgCl2, pH 7.4; degree of multimerization MWRh/MWm.
Assay [5] has as its target amyloid-β peptide, residues 1-42 (human) (UniProt P05067).
Assay [6] deals with amyloid-β peptide, residues 1-40 (human) (UniProt P05067).
Assay [7] concerns the target exenatide (UniProt P26349). The assay can be described thus: dynamic light scattering; […] µM Exen; 25 °C; 25 mM Tris-HCl, 140 mM NaCl, 4.9 mM KCl, […] CaCl2, 1 mM MgCl2, pH 7.4; degree of multimerization MWRh/MWm.
Assay [8] addresses exenatide (UniProt P26349). Nature of the assay: dynamic light scattering; 234 µM Exen; 25 °C; 25 mM Tris-HCl, 140 mM NaCl, 4.9 mM KCl, […] CaCl2, 1 mM MgCl2, pH 7.4; degree of multimerization MWRh/MWm.
The target in assay [9] is liraglutide (human). Nature of the assay: dynamic light scattering; 13 µM Lira; 25 °C; 25 mM Tris-HCl, 140 mM NaCl, 4.9 mM KCl, […] CaCl2, 1 mM MgCl2, pH 7.4; degree of multimerization MWRh/MWm.
The target of assay [10] is amyloid-β peptide, residues 1-42 (human) (UniProt P05067). The assay can be described thus: BLI; Aβ40/Aβ42 immobilised on amine-reactive sensors (EDAC/sulfo-NHS), washed with 0.5% SDS; analyte 5 µM Lira; 25 °C; 20 mM Tris-HCl, 140 mM NaCl, 4.9 mM KCl, […] CaCl2, 1 mM MgCl2, pH 7.4; single binding site model (1), fitted for each analyte concentration; apparent constants.
Assay [11] has as its target amyloid-β peptide, residues 1-40 (human) (UniProt P05067). Described as above.
The target of assay [12] is liraglutide (human). Nature of the assay: dynamic light scattering; 6 µM Lira; 25 °C; 25 mM Tris-HCl, 140 mM NaCl, 4.9 mM KCl, […] CaCl2, 1 mM MgCl2, pH 7.4; degree of multimerization MWRh/MWm.
The target in assay [13] is amyloid-β peptide, residues 1-42 (human) (UniProt P05067). The assay can be described thus: SPR. In general terms: SPR reads the build-up and loss of mass on a sensor chip optically.
The target in assay [14] is amyloid-β peptide, residues 1-40 (human) (UniProt P05067). Nature of the assay: SPR.
Assay [15] deals with amyloid-β peptide, residues 1-42 (human) (UniProt P05067). The assay can be described thus: BLI; Aβ40/Aβ42 immobilised on amine-reactive sensors (EDAC/sulfo-NHS), washed with 0.5% SDS; analyte 20 µM Lira; 25 °C; 20 mM Tris-HCl, 140 mM NaCl, 4.9 mM KCl, […] CaCl2, 1 mM MgCl2, pH 7.4; single binding site model (1), fitted for each analyte concentration; apparent constants.
For assay [16], the target named is amyloid-β peptide, residues 1-40 (human) (UniProt P05067). The description is as above.
Assay [17] deals with amyloid-β peptide, residues 1-42 (human) (UniProt P05067). The assay can be described thus: BLI; Aβ40/Aβ42 immobilised on amine-reactive sensors (EDAC/sulfo-NHS), washed with 0.5% SDS; analyte 10 µM Lira; 25 °C; 20 mM Tris-HCl, 140 mM NaCl, 4.9 mM KCl, […] CaCl2, 1 mM MgCl2, pH 7.4; single binding site model (1), fitted for each analyte concentration; apparent constants.
Assay [18] has as its target amyloid-β peptide, residues 1-40 (human) (UniProt P05067). The assay is described as above.
The target of assay [19] is liraglutide (human). Nature of the assay: dynamic light scattering; 52 µM Lira; 25 °C; 25 mM Tris-HCl, 140 mM NaCl, 4.9 mM KCl, […] CaCl2, 1 mM MgCl2, pH 7.4; degree of multimerization MWRh/MWm.
Assay [20] has as its target amyloid-β peptide, residues 1-42 (human) (UniProt P05067). Nature of the assay: BLI; Aβ40/Aβ42 immobilised on amine-reactive sensors (EDAC/sulfo-NHS), washed with 0.5% SDS; analyte Sema, 17 µM on Aβ40 and 38 µM on Aβ42; 25 °C; 20 mM HEPES-KOH, 140 mM NaCl, 4.9 mM KCl, […] CaCl2, 1 mM MgCl2, pH 7.4; heterogeneous ligand scheme (2).
Assay [21] has as its target amyloid-β peptide, residues 1-40 (human) (UniProt P05067). The assay is described as above.
Another assay addresses semaglutide (human). The assay can be described thus: dynamic light scattering; 12 µM Sema; 25 °C; 25 mM Tris-HCl, 140 mM NaCl, 4.9 mM KCl, […] CaCl2, 1 mM MgCl2, pH 7.4; degree of multimerization MWRh/MWm.

On to “exenatide (from UniProt P26349 48-87) (peptide)”, for which the stoichiometry N – broadly, a count of units in the complex or per binding partner – with exenatide [1] was 2.1; with exenatide [4], 6.4; in the assay with exenatide [7], 1.6; in the assay with exenatide [8], 5.88. Also, the Kd in assay [2] is 4000 nM and 15000 nM; in [3], 4000 nM and 15000 nM; in assay [5] it was 1000 nM; in [6] it was 1000 nM.
Consider liraglutide (peptide), for which the stoichiometry N with liraglutide (human) [9] stood at 6.5; with liraglutide (human) [12] it was 8.2; with liraglutide (human) [19], 16.3. Also, the Kd was 45 nM in assay [10]; 42 nM in [11]; 110 nM in assay [15]; 110 nM in assay [16]; 60 nM in assay [17]; 48 nM in assay [18]. Also, the koff – broadly, the first-order rate constant of dissociation – turned out to be 0.00054 s⁻¹ in assay [10]; 0.000556 s⁻¹ in assay [11]; 0.0006 s⁻¹ in assay [15]; 0.0009 s⁻¹ in [16]; 0.000482 s⁻¹ in assay [17]; 0.000346 s⁻¹ in [18]. Further, the kon (usually the second-order rate constant of association) is 12100 M⁻¹ s⁻¹ in assay [10]; 13400 M⁻¹ s⁻¹ in assay [11]; 5700 M⁻¹ s⁻¹ in assay [15]; 8400 M⁻¹ s⁻¹ in assay [16]; 8000 M⁻¹ s⁻¹ in [17]; 7300 M⁻¹ s⁻¹ in assay [18]. Also, the KD1 (heterogeneous ligand model, site 1) turned out to be 520 nM in assay [13] and 950 nM in [14]. The KD2 (heterogeneous ligand model, site 2) in assay [13] was found to be 5.6 µM; in assay [14], 9.1 µM. The ka1 (heterogeneous ligand model, site 1) in assay [13] came out at 2240 M⁻¹ s⁻¹; in assay [14], 1440 M⁻¹ s⁻¹. Besides, the ka2 (heterogeneous ligand model, site 2) in assay [13] was determined as 2900 M⁻¹ s⁻¹; in [14] it was 1900 M⁻¹ s⁻¹. For the same substance, the kd1 (heterogeneous ligand model, site 1) was found to be 0.00114 s⁻¹ in assay [13] and 0.00119 s⁻¹ in assay [14]. The kd2 (heterogeneous ligand model, site 2) came to 0.0164 s⁻¹ in assay [13] and 0.017 s⁻¹ in assay [14].
For semaglutide (peptide), in assay [20], the KD1 (heterogeneous ligand scheme, site 1) is 11 µM; the KD2 (heterogeneous ligand scheme, site 2) was found to be 22 µM; the ka1 (heterogeneous ligand scheme, site 1) was found to be 582 M⁻¹ s⁻¹; the ka2 (heterogeneous ligand scheme, site 2) stood at 6100 M⁻¹ s⁻¹. In assay [20], this substance came in with a kd1 (heterogeneous ligand scheme, site 1) of 0.0064 s⁻¹ and a kd2 (heterogeneous ligand scheme, site 2) of 0.134 s⁻¹. In assay [21], this substance displayed a KD1 (heterogeneous ligand scheme, site 1) of 12 µM; a KD2 (heterogeneous ligand scheme, site 2) of 16 µM; a ka1 (heterogeneous ligand scheme, site 1) of 310 M⁻¹ s⁻¹; a ka2 (heterogeneous ligand scheme, site 2) of 5700 M⁻¹ s⁻¹. In assay [21], this substance showed a kd1 (heterogeneous ligand scheme, site 1) of 0.0037 s⁻¹ and a kd2 (heterogeneous ligand scheme, site 2) of 0.091 s⁻¹. Further, the stoichiometry N with semaglutide (human) amounted to 1.9. Further, in assay [13], the KD1 (heterogeneous ligand model, site 1) is 340 nM; the KD2 (heterogeneous ligand model, site 2) came to 0.3 µM; the ka1 (heterogeneous ligand model, site 1) was found to be 12600 M⁻¹ s⁻¹; the ka2 (heterogeneous ligand model, site 2) was 134000 M⁻¹ s⁻¹. In assay [13], this substance displayed a kd1 (heterogeneous ligand model, site 1) of 0.0041 s⁻¹ and a kd2 (heterogeneous ligand model, site 2) of 0.038 s⁻¹. Also, in assay [14], the KD1 (heterogeneous ligand model, site 1) is 340 nM; the KD2 (heterogeneous ligand model, site 2) stood at 1.2 µM; the ka1 (heterogeneous ligand model, site 1) stood at 9600 M⁻¹ s⁻¹; the ka2 (heterogeneous ligand model, site 2) worked out at 39000 M⁻¹ s⁻¹. Moreover, in [14], the kd1 (heterogeneous ligand model, site 1) was determined as 0.0032 s⁻¹ and the kd2 (heterogeneous ligand model, site 2) was 0.0432 s⁻¹.
